Target: variola virus topoisomerase IB (vTopIB) (variola virus (smallpox), UniProt P32989 1-314)
Assay: X-ray crystallography

Sequence of variola virus topoisomerase IB (vTopIB) (P32989 whole entry): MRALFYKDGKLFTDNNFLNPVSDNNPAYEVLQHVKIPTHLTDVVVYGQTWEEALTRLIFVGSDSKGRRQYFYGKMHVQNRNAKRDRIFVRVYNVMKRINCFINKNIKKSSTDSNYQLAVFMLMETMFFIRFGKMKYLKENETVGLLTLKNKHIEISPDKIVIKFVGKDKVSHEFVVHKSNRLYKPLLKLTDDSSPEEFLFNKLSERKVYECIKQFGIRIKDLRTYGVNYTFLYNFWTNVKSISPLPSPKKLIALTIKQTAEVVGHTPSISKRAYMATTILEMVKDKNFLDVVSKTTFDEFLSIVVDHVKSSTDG

B1: nicked vTopIB-binding duplex (three oligonucleotides) (dsDNA)
DNA 1: GTGTCGCCCTT
DNA 2: ATTCC
DNA 3: CGGAATAAGGGCGACA
modifications: nick at the scissile phosphate (phosphodiester missing), filled by vanadate in the crystal
binding result: binds
